Test results taken from patent US20170174789A1 (Regeneron, published 2017).

T1: hTie2-mFc (human)
T1 chain: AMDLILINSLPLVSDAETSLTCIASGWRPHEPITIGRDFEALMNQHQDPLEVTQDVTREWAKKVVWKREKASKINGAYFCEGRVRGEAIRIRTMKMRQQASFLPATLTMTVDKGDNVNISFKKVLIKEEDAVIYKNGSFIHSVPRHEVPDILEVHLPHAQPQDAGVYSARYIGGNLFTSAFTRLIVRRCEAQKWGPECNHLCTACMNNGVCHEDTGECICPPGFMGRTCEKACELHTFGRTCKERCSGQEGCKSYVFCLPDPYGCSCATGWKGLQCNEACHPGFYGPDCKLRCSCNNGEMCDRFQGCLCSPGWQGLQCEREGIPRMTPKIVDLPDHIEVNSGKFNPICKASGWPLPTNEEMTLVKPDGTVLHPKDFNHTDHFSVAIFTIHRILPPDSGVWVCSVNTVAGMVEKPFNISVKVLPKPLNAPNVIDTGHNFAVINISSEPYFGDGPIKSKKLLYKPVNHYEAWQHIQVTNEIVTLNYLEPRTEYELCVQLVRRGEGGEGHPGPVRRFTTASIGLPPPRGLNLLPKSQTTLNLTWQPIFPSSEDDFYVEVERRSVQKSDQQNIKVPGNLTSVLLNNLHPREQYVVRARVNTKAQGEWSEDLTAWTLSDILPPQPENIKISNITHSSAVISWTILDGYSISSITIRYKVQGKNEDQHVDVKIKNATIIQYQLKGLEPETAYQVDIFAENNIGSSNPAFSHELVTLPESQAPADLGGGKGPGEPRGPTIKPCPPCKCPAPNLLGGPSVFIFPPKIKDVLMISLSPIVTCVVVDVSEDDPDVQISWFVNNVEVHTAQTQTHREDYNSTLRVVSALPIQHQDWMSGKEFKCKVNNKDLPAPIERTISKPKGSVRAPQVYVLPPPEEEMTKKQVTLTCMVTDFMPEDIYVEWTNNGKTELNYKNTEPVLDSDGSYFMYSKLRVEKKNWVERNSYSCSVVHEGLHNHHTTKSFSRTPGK

B1: H1H2339B (antibody, V domains shown)
VH: EVQLVESGGGLVQPGGSLRLSCAASGFTFSSYAMNWVRQAPGKGLEWVSSISGSGGNTYYADSVKGRFTISRDNSKNTLYLQLNSLRAEDTAVYYCAKDHSLSWYRNVFDIWGQGTMVTVSS
VL: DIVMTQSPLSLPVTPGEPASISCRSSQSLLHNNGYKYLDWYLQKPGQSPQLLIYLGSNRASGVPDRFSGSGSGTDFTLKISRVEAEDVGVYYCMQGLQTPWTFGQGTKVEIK
notes: Tested as H1H2339B (human IgG format, H1H prefix)
B2: H1H2340B (antibody, V domains shown)
VH: EVQLVESGGGLVQPGGSLRLSCAASGFTFSRYWMSWVRQAPGMGLEWVANIKQDGSEKNYVDSVKGRFTVSRDNAKNSLYLQMNSLRAEDTAVYYCASAIFGVVITSYWGQGTLVTVSS
VL: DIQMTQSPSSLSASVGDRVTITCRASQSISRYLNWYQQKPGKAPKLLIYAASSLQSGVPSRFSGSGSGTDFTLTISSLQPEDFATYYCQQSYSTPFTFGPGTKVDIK
notes: Tested as H1H2340B (human IgG format, H1H prefix); also called HIH2340B

How the values were obtained:
hTie2 (EGF) = biological target: T2, hTie2 (EGF) (human, UniProt Q02763 210-344); assay: Luminex bead binding
T2 construct: Domain-deletion construct linked to Luminex beads
T2 sequence (Q02763 other isoform, or with tags, fused parts or gaps limits assumed): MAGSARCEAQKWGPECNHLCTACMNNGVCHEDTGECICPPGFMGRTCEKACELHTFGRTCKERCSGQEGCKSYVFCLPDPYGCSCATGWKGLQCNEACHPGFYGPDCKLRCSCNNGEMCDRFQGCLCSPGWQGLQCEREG
Experimental: (§1) For binding, 25 μl of anti-Tie2 antibody (25 μg/ml) was added to 75 μl of the above created Luminex bead mixture (3×10³ beads per construct) in binding buffer (PBS, 0.05% Tween 20, 1 mg/ml BSA, 0.05% sodium azide) into a 96 well filter plate (Millipore). Incubation was at room temperature (RT) for 90 min or overnight at 4° C. with shaking. The beads were washed 3× with washing buffer (PBS+0.05% Tween 20) resuspended in 100 μl binding buffer containing PE (phycoerythrine)-labeled anti human kappa or PE-labeled anti mouse Fab secondary antibody and incubated at RT for 45 min with shaking. Samples were washed 2× more and binding signal (MFI) for each bead was determined using a Luminex L200 or FLEXMAP3D instrument. Bead linked human Tie2 was used as positive control and bead linked human Tie1 was used to measure family cross-reactivity. In general MFI signals greater than 500 units represent significant binding.

hTie2 (Ig1-Ig2-EGF) = biological target: T3, hTie2 (Ig1-Ig2-EGF) (human, UniProt Q02763 24-344); assay: Luminex bead binding
T3 construct: Domain-deletion construct; also used for H/D exchange
Experimental: as §1

hTie2 (Ig2-EGF) = biological target: T4, hTie2 (Ig2-EGF) (human, UniProt Q02763 121-344); assay: Luminex bead binding
T4 construct: Domain-deletion construct linked to Luminex beads
T4 sequence (Q02763 other isoform, or with tags, fused parts or gaps limits assumed): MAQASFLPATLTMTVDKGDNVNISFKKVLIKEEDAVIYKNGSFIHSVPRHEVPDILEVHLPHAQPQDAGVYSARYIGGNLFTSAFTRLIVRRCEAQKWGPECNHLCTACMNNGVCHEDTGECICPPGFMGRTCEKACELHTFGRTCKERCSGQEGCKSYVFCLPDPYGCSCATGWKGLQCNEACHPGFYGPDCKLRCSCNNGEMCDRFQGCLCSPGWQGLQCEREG
Experimental: as §1

[1] = biological target: hTie2 on 293-Tie2/SRE-Luc cells (human, UniProt Q02763 23-1124); assay: cell-based or functional assay
hTie2-His [2] = biological target: T5, hTie2-His (human, UniProt Q02763 23-745); assay: SPR Biacore 37C, mAb captured
T5 construct: also called ecto-Tie2 fused to 6xHis; biotin-Tie2-His
Experimental: (§2) (Tables 3-6). Measurements were conducted on a Biacore 2000 or T200 instrument.
(§3) For antibodies with a mouse constant region (designated H1M or H2M), antibodies were immobilized onto an anti-mouse Fc sensor surface and different concentrations of human, mouse or rat Tie2 constructs (hTie2-His, mTie2-hFc and rTie2-hFc) were injected over the antibody captured surface. For antibodies in the human IgG format (designated H1H or H4H), either an anti-human Fc sensor surface (hTie2-His and hTie2-mFc) or anti-human Fab sensor surface (mTie2-hFc and rTie2-hFc) was employed depending on the Tie-2 construct applied to the antibody captured surface. Amino acid sequences of the constructs used in this Example are as follows: hTie2-His (SEQ ID NO:2); hTie2-hFc (SEQ ID NO:3); hTie2-mFc (SEQ ID NO:4); rTie2-hFc (SEQ ID NO:5); and mTie2-hFc (SEQ ID NO:6).
(§4) Kinetic rate constants—association rate (ka) and dissociation rate (kd) were determined by fitting the real time binding sensorgrams to a 1:1 binding model with mass transport limitation using Scrubber 2.0 curve fitting software. The equilibrium dissociation constant (KD) and dissociative half-life (T½) were calculated from the kinetic rate constants as: KD (M)=kd/ka; and T½ (min)=(In2/(60*kd).).

hTie2-mFc [3] = biological target: T1, hTie2-mFc; assay: SPR Biacore 37C, mAb captured
Experimental: as §2, §3, §4

hTie2-His [4] = biological target: T5, hTie2-His; assay: SPR Biacore 25C, mAb captured
Experimental: as §2, §3, §4

hTie2-mFc [5] = biological target: T1, hTie2-mFc; assay: SPR Biacore 25C, mAb captured
Experimental: as §2, §3, §4

mTie2-hFc = biological target: T6, mTie2-hFc (mouse); assay: SPR Biacore 25C, mAb captured
T6 construct: also called mouse Tie2
Experimental: as §2, §3, §4

rTie2-hFc = biological target: T7, rTie2-hFc (rat); assay: SPR Biacore 25C, mAb captured
T7 construct: also called rat Tie2
T7 sequence (chain, as listed by the source limits assumed): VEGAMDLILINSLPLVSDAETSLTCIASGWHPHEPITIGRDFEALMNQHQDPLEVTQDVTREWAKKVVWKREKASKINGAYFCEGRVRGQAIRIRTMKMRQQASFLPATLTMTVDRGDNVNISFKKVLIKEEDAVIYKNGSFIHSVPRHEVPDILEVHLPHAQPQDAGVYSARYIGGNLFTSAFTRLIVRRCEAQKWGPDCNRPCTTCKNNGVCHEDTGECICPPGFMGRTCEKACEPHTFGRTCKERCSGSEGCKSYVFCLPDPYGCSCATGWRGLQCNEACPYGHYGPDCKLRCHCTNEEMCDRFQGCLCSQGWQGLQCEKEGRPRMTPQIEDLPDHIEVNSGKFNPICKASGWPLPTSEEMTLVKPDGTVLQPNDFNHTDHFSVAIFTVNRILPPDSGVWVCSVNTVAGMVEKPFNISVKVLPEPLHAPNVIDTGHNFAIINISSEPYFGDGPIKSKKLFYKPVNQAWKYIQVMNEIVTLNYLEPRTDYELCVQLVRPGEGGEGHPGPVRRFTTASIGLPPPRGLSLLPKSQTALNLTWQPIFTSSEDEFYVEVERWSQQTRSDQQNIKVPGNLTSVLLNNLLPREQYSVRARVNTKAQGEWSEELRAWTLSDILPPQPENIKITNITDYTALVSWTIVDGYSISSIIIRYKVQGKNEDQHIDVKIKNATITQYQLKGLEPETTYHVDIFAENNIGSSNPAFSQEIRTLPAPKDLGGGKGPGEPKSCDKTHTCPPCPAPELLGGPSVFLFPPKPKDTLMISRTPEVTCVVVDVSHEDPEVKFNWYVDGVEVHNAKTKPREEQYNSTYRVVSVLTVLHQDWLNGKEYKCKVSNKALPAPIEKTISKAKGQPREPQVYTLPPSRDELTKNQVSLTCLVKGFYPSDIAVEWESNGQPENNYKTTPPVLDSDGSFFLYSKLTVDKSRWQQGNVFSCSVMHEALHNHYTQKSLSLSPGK
Experimental: as §2, §3, §4

Row | Binder | binding result (hTie2 (EGF)) | binding result (hTie2 (Ig1-Ig2-EGF)) | binding result (hTie2 (Ig2-EGF)) | EC50, Tie2 dependent luciferase activity, 293-Tie2/SRE-Luc cells with 1 nM BowAng1 [1] [nM] | EC50, Tie2 dependent luciferase activity, 293-Tie2/SRE-Luc cells with 1 nM BowAng2 [1] [nM] | Kd (hTie2-His [2]) [nM] | T½ (hTie2-His [2]) [min] | koff (hTie2-His [2]) [s⁻¹] | kon (hTie2-His [2]) [M⁻¹ s⁻¹] | Kd (hTie2-mFc [3]) [nM] | T½ (hTie2-mFc [3]) [min] | koff (hTie2-mFc [3]) [s⁻¹] | kon (hTie2-mFc [3]) [M⁻¹ s⁻¹] | Kd (hTie2-His [4]) [nM] | T½ (hTie2-His [4]) [min] | koff (hTie2-His [4]) [s⁻¹] | kon (hTie2-His [4]) [M⁻¹ s⁻¹] | Kd (hTie2-mFc [5]) [nM] | T½ (hTie2-mFc [5]) [min] | koff (hTie2-mFc [5]) [s⁻¹] | other results
1 | B1 | no binding (tested: MFI >500 = significant binding) | no binding (tested: MFI >500 = significant binding) | no binding (tested: MFI >500 = significant binding) | 10.3 | 13 | 72 | 2 | 0.00488 | 67800 | 1.53 | 39 | 0.000295 | 193000 | 22.4 | 9 | 0.00125 | 55800 | 0.67 | 114 | 0.000102 | kon (hTie2-mFc [5]): 151000 M⁻¹ s⁻¹; Kd (mTie2-hFc): 56.3 nM; T½ (mTie2-hFc): 4 min; koff (mTie2-hFc): 0.00263 s⁻¹; kon (mTie2-hFc): 46800 M⁻¹ s⁻¹; binding result (rTie2-hFc): no binding
2 | B2 | no binding (tested: MFI >500 = significant binding) | no binding (tested: MFI >500 = significant binding) | no binding (tested: MFI >500 = significant binding) | 1.41 | 2.1 | 102 | 1 | 0.00998 | 97500 | 2.58 | 22 | 0.000515 | 200000 | 49.2 | 3 | 0.00345 | 70100 | 1.16 | 60 | 0.000191 | kon (hTie2-mFc [5]): 165000 M⁻¹ s⁻¹; Kd (mTie2-hFc): 49.6 nM; T½ (mTie2-hFc): 2 min; koff (mTie2-hFc): 0.00672 s⁻¹; kon (mTie2-hFc): 136000 M⁻¹ s⁻¹; Kd (rTie2-hFc): 25.9 nM; T½ (rTie2-hFc): 3 min; koff (rTie2-hFc): 0.00371 s⁻¹; kon (rTie2-hFc): 143000 M⁻¹ s⁻¹
